The text below walks through data of US20190300875A1 (University of California, published 2019).

Assay [1] concerns the target T1, Arabidopsis cryptochrome 2 (CRY2) (Arabidopsis, UniProt Q96524 1-612).
T1 construct: also called AT1G04400
As to the kind of experiment: yeast β-gal assay, dark or blue light (FIG. 5H). As to the method: The H293 cells were transfected with vector expressing CRY2 only (CRY2), or together with vector expression Myc-BIC1 (CRY2+BIC1) and cultured in dark for 24 hours. The cells were cracked and divided into equally 12 tubes, then treated with blue light (40 μmol m⁻² s⁻¹) for the duration indicated. The sample were analyzed by western blot using anti-CRY2 antibody and anti-Myc antibody sequentially. (FIG. 5B) β-Gal assay of yeast cells expressing indicated proteins kept in darkness (D) or irradiated with blue light (B50, 50 μmol m⁻² s⁻¹) for indicated durations. (FIG. 5C) Fluorescence images showing the formation of CRY2-GFP nuclear bodies in the protoplasts of WT, BIC1-OX line or […]. The protoplasts transformed with CRY2-GFP construct were kept in darkness overnight and then irradiated with blue light (20 μmol m⁻² s⁻¹) for the time indicated. […] Each sample contains at least 50 protoplast. Means and SD (n=3) are shown. (FIG. 5E) BiFC analysis of the blue-light-induced formation of CRY2 nuclear bodies in protoplasts of WT, BIC1-OX line or BIC2-OX line. The protoplasts transformed with cYFP-CRY2 and nYFP-CRY2 constructs were kept in darkness overnight and then irradiated with blue light (20 μmol m⁻² s⁻¹) for the time indicated. […] Each sample contains at least 50 protoplast. Means and SD (n=3) are shown. […]

In assay [2] the target is T2, cCFP-CRY2 (C terminus of cyan fluorescent protein fused to CRY2) (Arabidopsis, UniProt Q96524 1-612).
T2 construct: BiFC construct in Arabidopsis protoplasts; not shown: C terminus of cyan fluorescent protein
As to the kind of experiment: BiFC in Arabidopsis protoplasts.

B1: Arabidopsis CIB1 (cryptochrome-interacting basic-helix-loop-helix) protein (other)
chain: MNGAIGGDLLLNFPDMSVLERQRAHLKYLNPTFDSPLAGFFADSSMITGGEMDSYLSTAGLNLPMMYGETTVEGDSRLSISPETTLGTGNFKKRKFDTETKDCNEKKKKMTMNRDDLVEEGEEEKSKITEQNNGSTKSIKKMKHKAKKEENNFSNDSSKVTKELEKTDYIHVRARRGQATDSHSIAERVRREKISERMKFLQDLVPGCDKITGKAGMLDEIINYVQSLQRQIEFLSMKLAIVNPRPDFDMDDIFAKEVASTPMTVVPSPEMVLSGYSHEMVHSGYSSEMVNSGYLHVNPMQQVNTSSDPLSCFNNGEAPSMWDSHVQNLYGNLGV
notes: also called AT4G34530
As to B1, the binding result in assay [1] is given as “binds”.

B2: nYFP-CRY2 (N terminus of YFP fused to CRY2) (other)
chain: MKMDKKTIVWFRRDLRIEDNPALAAAAHEGSVFPVFIWCPEEEGQFYPGRASRWWMKQSLAHLSQSLKALGSDLTLIKTHNTISAILDCIRVTGATKVVFNHLYDPVSLVRDHTVKEKLVERGISVQSYNGDLLYEPWEIYCEKGKPFTSFNSYWKKCLDMSIESVMLPPPWRLMPITAAAEAIWACSIEELGLENEAEKPSNALLTRAWSPGWSNADKLLNEFIEKQLIDYAKNSKKVVGNSTSLLSPYLHFGEISVRHVFQCARMKQIIWARDKNSEGEESADLFLRGIGLREYSRYICFNFPFTHEQSLLSHLRFFPWDADVDKFKAWRQGRTGYPLVDAGMRELWATGWMHNRIRVIVSSFAVKFLLLPWKWGMKYFWDTLLDADLECDILGWQYISGSIPDGHELDRLDNPALQGAKYDPEGEYIRQWLPELARLPTEWIHHPWDAPLTVLKASGVELGTNYAKPIVDIDTARELLAKAISRTREAQIMIGAAPDEIVADSFEALGANTIKEPGLCPSVSSNDQQVPSAVRYNGSKRVKPEEEEERDMKKSRGFDERELFSTAESSSSSSVFFVSQSCSLASEGKNLEGIQDSSDQITTSLGKNGCK
notes: BiFC construct in Arabidopsis protoplasts; not shown: N terminus of YFP
On to B2, for which the binding result in assay [2] is “binds”.
